In assay [1] the target is B-RAF_L487R (human B-RAF kinase domain, residues 448-723) (human) (UniProt P15056). Briefly: analytical ultracentrifugation, equilibrium sedimentation, self-association.
The target in assay [2] is B-RAF_L487R/E558K (human B-RAF kinase domain, residues 448-723) (human) (UniProt P15056). Described as above.
Assay [3] has as its target B-RAF_R481H (human B-RAF kinase domain, residues 448-723) (human) (UniProt P15056). Described as above.
The target of assay [4] is MEK (overexpressed in S2 cells) (UniProt Q24324 1-396). Briefly: co-immunoprecipitation from S2 cells. The method, then:
S2 cells were maintained in serum-free insect cell medium (Sigma) at 27° C. Cells were seeded at a density of 1.75×10⁶ cells/ml 24 h prior to transfection. Between 10 to 300 ng (or up to 900 ng for KSR_R732H) of DNA was transfected per construct using Effectene (Qiagen). dsRNAs were produced and used in RNAi experiments as described (Roy, F., Laberge, G., Douziech, M., Ferland-McCollough, D. & Therrien, M. KSR is a scaffold required for activation of the ERK/MAPK module. Genes Dev 16, 427-38 (2002)). Protein expression was induced by adding CuSO₄ (0.7 mM) 36 h before harvesting the cells. For FRB/FKBP-mediated dimer formation, rapamycin (Sigma) was added ([…]) to the medium 2 h prior to harvesting the cells. Lysates, immunoprecipitations, western blot procedures and antibodies were essentially as previously described (Douziech, M., Sahmi, M., Laberge, G. & Therrien, M. A, KSR/CNK complex mediated by HYP, a novel SAM domain-containing protein, regulates RAS-dependent RAF activation in Drosophila, Genes Dev, 20, 807-19 (2006)).

Sequence of MEK (overexpressed in S2 cells) (Q24324 whole entry): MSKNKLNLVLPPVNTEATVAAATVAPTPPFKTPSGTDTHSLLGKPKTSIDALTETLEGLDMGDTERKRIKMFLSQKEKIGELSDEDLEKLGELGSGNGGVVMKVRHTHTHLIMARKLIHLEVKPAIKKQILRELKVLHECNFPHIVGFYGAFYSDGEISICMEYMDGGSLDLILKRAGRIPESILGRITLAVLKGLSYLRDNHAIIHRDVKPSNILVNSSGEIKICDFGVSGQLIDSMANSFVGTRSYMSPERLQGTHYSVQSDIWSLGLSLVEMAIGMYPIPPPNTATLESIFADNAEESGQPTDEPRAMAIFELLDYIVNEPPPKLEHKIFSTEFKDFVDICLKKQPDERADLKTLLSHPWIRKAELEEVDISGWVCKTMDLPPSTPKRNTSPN

Consider “B-RAF_L487R (human B-RAF kinase domain, residues 448-723) (from UniProt P15056 448-723) (enzyme)”, for which, in assay [1], the average molecular weight (global self association fit) was 48600 Da and the ratio of the observed average MW to the theoretical MW of the monomer was 1.5. With “B-RAF_L487R/E558K (human B-RAF kinase domain, residues 448-723) (from UniProt P15056 448-723) (enzyme)”, in assay [2], the average molecular weight (global self association fit) is 55500 Da and the ratio of the observed average MW to the theoretical MW of the monomer turned out to be 1.8.

As for “B-RAF_R481H (human B-RAF kinase domain, residues 448-723) (from UniProt P15056 448-723) (enzyme)”, in assay [3], the average molecular weight (global self association fit) turned out to be 34500 Da and the ratio of the observed average MW to the theoretical MW of the monomer worked out at 1.1.

B1: KSR-RAF chimera-A (KSR 1-665 fused to RAF 417-739, K455M) (other)
chain: MSSNNNAPASAPDTGSTNANDPISGSLSVDSNLVIIQDMIDLSANHLEGLRTQCAISSTLTQQEIRCLESKLVRYFSELLLAKMRLNERIPANGLVPHTTGNELRQWLRVVGLSQGTLTACLARLTTLEQSLRLSDEEIRQLLADSPSQREEEELRRLTRAMQNLRKCMESLESGTAASNNDPEQWHWDSWDRPTHIHRGSVGNIGLGNNSTASPRTHHRQHGVKGKNSALANSTNFKSGRQSPSATEELNSTQGSQLTLTLTPSPPNSPFTPSSGLSSSLNGTPQRSRGTPPPARKHQTLLSQSHVQVDGEQLARNRLPTDPSPDSHSSTSSDIFVDPNTNASSGGSSSNVLMVPCSPGVGHVGMGHAIKHRFTKALGFMATCTLCQKQVFHRWMKCTDCKYICHKSCAPHVPPSCGLPREYVDEFRHIKEQGGYASLPHVHGAAKGSPLVKKSTLGKPLHQQHGDSSSPSSSCTSSTPSSPALFQQRERELDQAGSSSSANLLPTPSLGKHQPSQFNFPNVTVTSSGGSGGVSLISNEPVPEQFPTAPATANGGLDSLVSSSNGHMSSLIGSQTSNASTAATLTGSLVNSTTTTSTCSFFPRKLSTAGVDKRTPFTSEYTDTHKSNDSDKTVSLSGSASTDSDRTPVRVDSTEDGDSGQWRQNSSEENWNILAEEILIGPRIGSGSFGTVYRAHWHGPVAVMTLNVKTPSPAQLQAFKNEVAMLKKTRHCNILLFMGCVSKPSLAIVTQWCEGSSLYKHVHVSETKFKLNTLIDIGRQVAQGMDYLHAKNIIHRDLKSNNIFLHEDLSVKIGDFGLATAKTRWSGEKQANQPTGSILWMAPEVIRMQELNPYSFQSDVYAFGIVMYELLAECLPYGHISNKDQILFMVGRGLLRPDMSQVRSDAPQALKRLAEDCIKYTPKDRPLFRPLLNMLENMLRTLPKIHRSASEPNLTQSQLQNDEFLYLPSPKTPVNFNNFQFFGSAGNI
For B1, the binding result in assay [4] was “no binding”.

The values above are taken from patent US20120190039A1 (MOUNT SINAI HOSPITAL, published 2012).
